The record followed here is US9205137B2, “Maturation of gastrointestinal tract” (ANARA AB, priority 2010, dated 2015).

Common to all, as to assay type: in vivo, Rattus norvegicus
Assay [1] deals with suckling rats. Put plainly: Papain vs microbial protease: macromolecule absorption (BSA, BIgG in plasma), Example 8. To be noted: in words (FIG. 14). The text has this: (§1) The litter size for each dam was limited to 12 or 13 pups, to reduce variability.
(§2) Suckling pups were divided into 3 groups depending on the treatments; microbial protease as a positive control, water as negative control and enzyme from papaya fruit (papain) (in total; protease=7, papain=8, control=7). The enzymes are available in the market in form of powders and were resolved in distilled water prior to stomach feeding during 14-16 d of age. The administered dose for each enzyme was 10000 USP/animal. The volume of administered enzymes and water (for control groups) was 0.01 ml/g b.wt. Prior to the feeding procedure, the pups were weighed. […] Three hours later, the pups were anaesthetized and organs were dissected out for analyses.

Assay [2] relates to suckling rats. Put plainly: Papain vs microbial protease: body and organ weight, Example 8.
Excerpt: as §1, §2

For assay [3], the system named is suckling rats. Kind of assay: Papain vs microbial protease: intestinal disaccharidase activity in proximal SI, Example 8. To be noted: proximal part of SI, in words (FIG. 13).
Excerpt: as §1, §2
The activities of the brush-border enzymes lactase, maltase and sucrase were analyzed in the proximal part of the SI in groups treated with papain and protease.

The mark [4] stands for this setting: 10000 USP/animal, days 14-16, day 17.

For bromelain, in the assay on suckling rats [1], the “intestinal macromolecular absorptive capacity” value is “remained in a higher level”.

B1: papain (protein, UniProt P00784 134-345, looked up)
Papain: IPEYVDWRQKGAVTPVKNQGSCGSCWAFSAVVTIEGIIKIRTGNLNEYSEQELLDCDRRSYGCNGGYPWSALQLVAQYGIHYRNTYPYEGVQRYCRSREKGPYAAKTDGVRQVQPYNEGALLYSIANQPVSVVLEAAGKDFQLYRGGIFVGPCGNKVDHAVAAVGYGPNYILIKNSWGTGWGENGYIRIKRGTGNSYGVCGLYTSSFYPVKN
notes: enzyme from papaya fruit (papain)
For the molecule B1, in the assay on suckling rats [2] (setting [4]), the Body weight came out at 33.2 ± 5.00 gr, the Cecum is reported as 3.42 ± 0.45 mg/g BW, the “Distal SI” value is 17.8 ± 2.5 mg/g BW and the Liver was 33.33 ± 1.52 mg/g BW. For the same molecule, in the assay on suckling rats [2] (setting [4]), the Pncrease was determined as 4.07 ± 0.46 mg/g BW, the “Proxima SI” value turned out to be 21.49 ± 1.57 mg/g BW, the SI length stood at 1.72 ± 0.17 cm/g BW and the Spleen was found to be 3.46 ± 0.44 mg/g BW. In the assay with suckling rats [2] (setting [4]), this molecule registered a Stomach of 7.13 ± 0.45 mg/g BW and a Thymus of 4.65 ± 0.92 mg/g BW. Besides, the “effect on body growth” value in the assay on suckling rats [2] (dose 10 000 USP, days 14 to 17, in words (FIG. 12)) is reported as “No effect”. In addition, in the assay with suckling rats [1] (day 17, 3 hours after feeding), the “BSA concentration in rat plasma” value is recorded as “significantly decreased” and the “uptake of macromolecules, BIgG absorption” value is on record as “significantly lower”. Also, in the assay on suckling rats [3], the “activity of maltase compared to control” value is recorded as “significantly increased” and the “activity of sucrase compared to control” value is recorded as “significantly increased”.

B2: trypsin (protein, UniProt P00760 24-246, looked up)
Serine protease 1: IVGGYTCGANTVPYQVSLNSGYHFCGGSLINSQWVVSAAHCYKSGIQVRLGEDNINVVEGNEQFISASKSIVHPSYNSNTLNNDIMLIKLKSAASLNSRVASISLPTSCASAGTQCLISGWGNTKSSGTSYPDVLKCLKAPILSDSSCKSAYPGQITSNMFCAGYLEGGKDSCQGDSGGPVVCSGKLQGIVSWGSGCAQKNKPGVYTKVCNYVSWIKQTIASN
notes: protease that breaks down proteins at the basic amino acids
As for B2, in the assay on suckling rats [2] (in words), the “weight of distal part of SI” value is on record as “increased weight”. Besides, in the assay with suckling rats [1], the “intestinal macromolecular absorptive capacity” value is “remained in a higher level”.
